Data: patent US20050202009A1 (published 2005)

biological target: HLA-DR4 (DRB1*0401) (human); experiment: in vitro peptide competition assay, purified HLA-DR, biotinylated HA(307-319) reporter

Row | Binder | binding result
1 | DKARVEVERDNLAEDIM (Eluted from HLA-DR of dendritic cells) [vimentin(167-183)] | binds
2 | TLQSFRQDVDNASLAR (Eluted from HLA-DR of dendritic cells) [vimentin(202-217)] | binds
3 | GQDLLFKDATVRAVPV (Eluted from HLA-DR of dendritic cells; also called 13) [melanotransferrin p97(668-683)] | binds
